Measurements as given in patent US20130156764A1, “NEUTRALIZATION OF FLT3 LIGAND AS A LEUKEMIA THERAPY” (The Johns Hopkins University, priority 2010, published 2013).

Legend:
[1] = system: MAPK phosphorylation; assay: FL stimulation, MAPK phosphorylation in primary AML blasts with homozygous FLT3/ITD; format: cell-based, human; conditions: 100 ng/mL FL
Method: To study whether further activation of mutant FLT3 receptors in response to FL also occurs in primary cells, experiments were carried on primary AML blasts expressing homozygous FLT3/ITD mutations (i.e., no detectable wild type FLT3 by PCR). The blasts were stimulated with 100 ng/mL FL. […] The survival of AML blasts was assessed by culturing them in complete medium with and without FL for 4 days.

[2] = system: STAT5 and AKT phosphorylation; assay: FL stimulation, downstream signaling in MV411 cells; format: cell-based, human
[3] = system: STAT5 and AKT phosphorylation; assay: FL stimulation, downstream signaling immunoblot in TF1/ITD and TF1/TKD cells; format: cell-based
Method: TF1 and BaF3 cells were transfected with pCINeo constructs containing either FLT3/ITD or FLT3/TKD mutation by electroporation (Bio-Rad, Hercules, Calif.). Stable transfectants were then selected by limiting dilution in 96-well plates with 1 mg/mL G418 (Invitrogen, Carlsbad, Calif.).
The possibility of further activation of FLT3 mutant receptors by exogenous FL was also tested in cell lines in which FL autocrine, paracrine, or intracrine stimulation of FLT3 receptor might exist. […] TF1 cells expressing FLT3 mutant receptors were starved for 16 hours in serum-free medium and washed once with PBS to deplete soluble FL (either produced by the cells or contained in the serum). These cells were then stimulated with exogenous FL for 15 minutes. More than 2-fold enhancement of FLT3 phosphorylation was detected in both TF1/ITD and TF1/TKD cell lines (FIG. 12A). […] To assess the functional effect of exogenous FL, TF1/ITD and TF1/TKD cells were cultured in serum-free medium in the absence and presence of FL for 48 hours. Apoptosis was assessed by Annexin V and 7AAD staining followed by FACS analysis. […] There was no change of cell cycle status in response to FL in these cells (data not shown).

[4] = system: FLT3 (wt, ITD, TKD) in FL−/− MEF cells; assay: FL stimulation, FLT3 phosphorylation in FL−/− MEF cells expressing wtFLT3, FLT3/ITD, FLT3/TKD; format: cell-based, mice
Method: Embryos were removed from female FL^−/− mice (purchased from Taconic, Hudson, N.Y.) on day 13 or 14 of pregnancy. Internal organs and heads were removed. The remainder of the embryos were washed, minced, digested with Trypsin/EDTA, and then resuspended in DMEM containing 10% FBS followed by centrifuging at 1000×g for 5 minutes. The cell pellet was resuspended in DMEM containing 10% FBS and cultured at 37° C. with 5% CO2. After 3 passages, the cells were transfected with CMV-SV40-large T antigen to immortalize FL^−/− MEF cells. The FL^−/− MEF cells represent bulk cells after transformation.
Retrovirus was obtained by harvesting supernatant 48 hours after transfection of 293T cells with pBabePuro constructs. […]
To eliminate the complicating factor of autocrine, paracrine, and intracrine FL expression on mutant FLT3 activation, FL^−/− MEF cells were established from FL^−/− mice. […] The addition of FL induced more than a 4-fold increase in FLT3 phosphorylation in FL^−/− MEF-FLT3, FL^−/− MEF-ITD, and FL^−/− MEF-TKD cells (quantitated by GS-800 Calibrated Densitometer (Bio-Rad) and Quantity One software (Bio-Rad)) (FIG. 10B, lanes 4, 6, and 8 versus lanes 3, 5, and 7). […]
The effect of endogenous FL expression on the activation of FLT3/ITD and FLT3/TKD mutant receptors were next examined. […] The expression of FL was assessed by the detection of the secreted form of FL in the cell culture supernatant. […]

B1: FL: Recombinant human FL (fms-related tyrosine kinase ligand) purchased from PeproTech; SEQ ID NO: 1 (protein, listed as Homo sapiens)
chain: MTVLAPAWSPTTYLLLLLLLSSGLSGTQDCSFQHSPISSDFAVKIRELSDYLLQDYPVTVASNLQDEELCGGLWRLVLAQRWMERLKTVAGSKMQGLLERVNTEIHFVTKCAFQPPPSCLRFVQTNISRLLQETSEQLVALKPWITRQNFSRCLELQCQPDSSTLPPPWSPRPLEATAPTAPQPPLLLLLLLPVGLLLLAAAWCLHWQRTRRRTPRPGEQVPPVPSPQDLLLVEH
- samples with increased MAPK phosphorylation [1]: two out of four samples
- phosphorylation of FLT3 downstream signaling, including STAT5 and AKT [2]: Slightly enhanced phosphorylation
- AKT phosphorylation and AKT protein expression ([3]; TF1/ITD and TF1/TKD after FL stimulation): Slightly increased
- STAT5 phosphorylation increase ([3]; both TF1/ITD and TF1/TKD): 1.8 fold
- increase in FLT3 phosphorylation ([4]; FL−/− MEF-FLT3, MEF-ITD and MEF-TKD cells, serum-free, FL 100 ng/mL 15 minutes): > 4 fold
- FLT3 phosphorylation in cells expressing endogenous FL ([4]; exogenous FL 100 ng/mL, MEF-FLT3, MEF-ITD, MEF-TKD cells stably expressing FL): did not further augment
